From the supplement of paper PMC10899765
“And” between values parts separate entries of the source, which are not always exact repeats. Equal values may be shown once.

What was measured:
Details in all cases: 20 nM; 72 h
MCF10A [1] = test: percent viability (nuclei count relative to siNT); higher = more viable cells
Procedure: (§1)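 After 72 h, cells were fixed and stained with Hoechst and anti-fibrillarin, and nucleoli per nucleus were counted with CellProfiler. Values are plate-adjusted percent effect for the one-nucleolus and 5+ nucleoli phenotypes, normalised to siNT (0%) and to the positive controls siNOL11 or siKIF11 (100%), as the mean of biological triplicates. Percent viability is the nuclei count relative to siNT.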

MCF10A [2] = test: one-nucleolus phenotype percent effect (relative to siNT 0% and siNOL11 100%); higher = more cells with one nucleolus (ribosome biogenesis inhibition)
Procedure: as §1

MCF10A [3] = test: 5+ nucleoli phenotype percent effect (relative to siNT 0% and siKIF11 100%); higher = more cells with five or more nucleoli
Procedure: as §1

Sequence | percent viability (MCF10A [1]) | one-nucleolus phenotype percent effect (MCF10A [2]) | 5+ nucleoli phenotype percent effect (MCF10A [3])
UCAGCAGGCAGGCUGGUGCAGC [hsa-miR-3619-5p] | 27.1% | 56.3% | -36.5%
CCUGGAAACACUGAGGUUGUG [hsa-miR-875-3p] | 155% | -26.1% | 37.4%
AUGAUCCAGGAACCUGCCUCU [hsa-miR-640] | 32.2% | 28.8% | -28.9%
UGGGAAAGAGAAAGAACAAGUA [hsa-miR-6739-5p] | 51.5% | -11.2% | 33%
CUACCCCCCAUCCCCCUGUAG [hsa-miR-6798-3p] | 72.5% | -5.24% | -13.9%
UAUUCAGAAAGGUGCCAGUCA [hsa-miR-892c-5p] | 71.8% | -3.71% | 9.47%
UCAGUAAAUGUUUAUUAGAUGA [hsa-miR-545-5p] | 175% | -24.2% | 38.8%
AAAUGUCACCUUUUUGAGAGGA [hsa-miR-513b-3p] | 94.2% | -7.38% | -25.5%
UAUGUAACACGGUCCACUAACC [hsa-miR-411-3p] | 76% | -6.25% | 22.1%
CUGUCCUAAGGUUGUUGAGUU [hsa-miR-676-3p] | 20.8% | -12% | 29.3%
UAGGGUACUCAGAGCAAGUUGU [hsa-miR-6841-5p] | 63.6% | -4.08% | 14.6%
UGUAGAUACGAGCACCAGCCAC [hsa-miR-3935] | 38.5% | -7.2% | 20.9%
UGAUUGGUACGUCUGUGGGUAG [hsa-miR-509-3p] | 37.8% | 34% | -46.5%
UGUGAGGUUGGCAUUGUUGUCU [hsa-miR-1294] | 28.9% | 19% | -10.7%
UUUGGACAGAAAACACGCAGGU [hsa-miR-4520b-3p] | 87% | -21.6% | 50%
AAGGCCCGGGCUUUCCUCCCAG [hsa-miR-4747-3p] | 29.2% | 31.7% | -14.1%
UGGAAGGGAGAAGAGCUUUAAU [hsa-miR-3202] | 21.6% | 62.8% | -35.3%
UGCAACUUACCUGAGUCAUUGA [hsa-miR-891b] | 41.4% | 1.72% | -7.44%
CAUUCAACUAGUGAUUGU [hsa-miR-4272] | 170% | -23.4% | 33.7%
AGAGGAUACCCUUUGUAUGUU [hsa-miR-1185-5p] | 34.2% | 2.36% | 5.5%
CAGCAGUGCGCAGGGCUG [hsa-miR-4519] | 27.2% | 8.95% | 8.89%
GAGGGCAGAGCCAGCUUCCUGA [hsa-miR-7843-5p] | 32.5% | 16.5% | 13.7%
CAGUGAUCGUCUCUGCUGGC [hsa-miR-8079] | 41.6% | 6.32% | -35%

Sequence | percent viability (MCF10A [1]) | one-nucleolus phenotype percent effect (MCF10A [2]) | 5+ nucleoli phenotype percent effect (MCF10A [3])
ACUUUAACAUGGAGGCACUUGC [hsa-miR-302d-5p] | 92.5% | -13.5% | 29.1%
UUUCUAUUUCUCAGUGGGGCUC [hsa-miR-4482-3p] | 21.2% | 31.6% | 0.737%
GUGUGACCACCGUUCCUGCAG [hsa-miR-6808-3p] | 27.3% | 28.3% | -25.4%
UCGCAGACAGGGACACAUGGAGA [hsa-miR-6767-5p] | 39% | -5.76% | 0.353%
AAUGACACGAUCACUCCCGUUGA [hsa-miR-425-5p] | 74.9% | -5.83% | 16.6%
UUAGAGGCUGGAAUAGAGAUUCU [hsa-miR-6866-5p] | 14.1% | 9.98% | -0.659%
UGUGACCCUAGAAUAAUUAC [hsa-miR-7973] | 29.4% | -2.95% | -4.82%
UGUUCCUCUGUCUCCCAGAC [hsa-miR-4326] | 32.4% | 18.8% | -25.5%
ACUGGACUUGGAGUCAGAAA [hsa-miR-378d] | 25.4% and 31.6% | 2.4% and 10.6% | 9.46% and 4.63%
AAAACUGUAAUUACUUUUGUAC [hsa-miR-548g-3p] | 165% | -25.2% | 49.3%
CUUGGGGCAUGGAGUCCCA [hsa-miR-4260] | 37.7% | -6.43% | 9.54%
CCACUGCCUAUGCCCCACAG [hsa-miR-6890-3p] | 62.1% | -16.6% | -13.4%
AAAAGUAUUUGCGGGUUUUGUC [hsa-miR-548l] | 127% | -20.8% | 30%
GUAGAUUCUCCUUCUAUGAGUA [hsa-miR-376a-5p] | 24.5% | -7.97% | 11.8%
GCCUCUCUCGGAGUCGCUCGGA [hsa-miR-3183] | 77.6% | -23.3% | 40%
CCUAUUCUUGAUUACUUGUUUC [hsa-miR-26a-2-3p] | 138% | -7.71% | 2.15%
AGCCAAGUGGAAGUUACUUUA [hsa-miR-4480] | 21.9% | 33.8% | -37.2%
UUGCACUCUGGCCUUCUCCCAGG [hsa-miR-7703] | 25% | 23% | -11.1%
ACAGCACUGCCUGGUCAGA [hsa-miR-383-3p] | 54.9% | -8.43% | -19%
UAAUACUGCCUGGUAAUGAUGA [hsa-miR-200b-3p] | 104% | -28.6% | 93.4%
UGGCCCGGCGACGUCUCACGGUC [hsa-miR-4745-3p] | 58.7% | -29.1% | 45%
AGGCACGGUGUCAGCAGGC [hsa-miR-564] | 67.8% | 11.4% | -12.9%
